The record followed here is publication PMC7360481.

For this series, the target named is Sox2 (Mus musculus, UniProt P48432 1-319). As to the kind of experiment: EMSA. (A gel shift assay detects complexes by their altered migration in electrophoresis.)
Sequence of Sox2 (P48432 whole entry): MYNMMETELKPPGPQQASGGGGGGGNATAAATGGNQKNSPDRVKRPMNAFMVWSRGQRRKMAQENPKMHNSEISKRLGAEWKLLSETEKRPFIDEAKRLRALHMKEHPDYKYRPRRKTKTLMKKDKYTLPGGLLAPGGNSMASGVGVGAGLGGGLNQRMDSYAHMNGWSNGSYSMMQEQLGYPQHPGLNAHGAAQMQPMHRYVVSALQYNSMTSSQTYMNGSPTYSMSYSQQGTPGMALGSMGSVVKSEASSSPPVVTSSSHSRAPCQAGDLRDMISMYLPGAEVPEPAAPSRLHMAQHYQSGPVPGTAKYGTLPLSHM

B1: RNA/DNA hybrid (DNA:RNA)
RNA: CCUACUACCUGUGCCUUUAAGUACCUUUUCUGUCUUCUA
DNA: TAGAAGACAGAAAAGGTACTCTAAAGGCACAGGTAGTAGG
On to B1, for which the binding result is “no binding”.
